± gives the uncertainty stated by the source.
Assay: protein stability index of a GFP-peptide fusion (yeast GPS) (PSI 1-4); higher = more stable; sorted into four equal gates, so the index is relative within each strain
Summary of the method: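 Mid-log yeast cultures in leucine-free medium, carrying a pooled plasmid library, were sorted into four equal gates by their GFP/Cherry fluorescence ratio. Each plasmid expressed Cherry along with GFP fused upstream of a tiled 17-residue yeast protein peptide. Plasmids recovered from each gate were PCR-amplified and Illumina-sequenced, with reads assigned to strains by barcodes. The protein stability index was obtained by summing each gate's read frequency weighted by its gate number.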

| Sequence | protein stability index (doa10∆) | protein stability index (pdr5∆) | protein stability index (san1∆) | protein stability index (ubr1∆) |
| --- | --- | --- | --- | --- |
| ETLENGETRMKMLNEFV [SMC2] | 2.87 ± 0.12 | 3.06 ± 0.24 | 3.17 ± 0.15 |  |
| ETLGLKYLGLKPGSIDA [FAS1] | 3.24 ± 0.13 | 3.24 ± 0.097 | 3.03 ± 0.076 | 3.22 ± 0.095 |
| ETQVLVSTPEKWDITTR [BRR2] | 3.17 ± 0.092 | 3.26 ± 0.083 | 3.31 ± 0.053 | 3.21 ± 0.034 |
| ETVAKSKNAERKWAARA [RPS8A] | 3.184 ± 0.028 | 3.362 ± 0.027 | 3.196 ± 0.018 | 3.315 ± 0.021 |
| EVAKRLVELMFIRSTNS [FAS1] | 1.79 ± 0.067 | 2.14 ± 0.069 | 2.5 ± 0.085 | 1.49 ± 0.042 |
| EVEKAHPIRLYTRYLDR [PRP8] | 3.11 ± 0.082 | 2.51 ± 0.068 | 2.35 ± 0.078 | 2.94 ± 0.048 |
| EVFSVLGIEAARYSIIR [RPO31] | 1.72 ± 0.13 | 1.63 ± 0.11 | 1.43 ± 0.25 | 1.59 ± 0.14 |
| EVHDLIGFITSGTYHLN [POP1] | 2.69 ± 0.15 | 2.64 ± 0.14 | 2.11 ± 0.13 | 2.48 ± 0.11 |
| EVKTPKIPLFTFAKSKN [SIR4] | 2.77 ± 0.054 | 2.98 ± 0.06 | 2.57 ± 0.043 | 2.81 ± 0.042 |
| EVLVTPGLEFLDDTTIP [MCD1] | 2.02 ± 0.057 | 2.98 ± 0.059 | 3.25 ± 0.037 | 3.08 ± 0.059 |
| EVQFGLFSPEEVRAISV [RPO21] | 2.85 ± 0.076 | 3.04 ± 0.059 | 3 ± 0.045 | 3.12 ± 0.034 |
| EVSGSIQYKKEYEELKE [SMC1] | 3.59 ± 0.15 | 3.15 ± 0.14 | 3.29 ± 0.089 | 3.35 ± 0.068 |
| EVSKDLIAVYYSFGGLL [RPB8] | 2.55 ± 0.051 | 2.7 ± 0.067 | 2.46 ± 0.079 | 2.72 ± 0.057 |
| EVTKLLKNEGIDLDHKR [SMC4] | 3.08 ± 0.12 | 3.2 ± 0.17 |  | 3.55 ± 0.1 |
| EVVKSLYDRPLKPDLNK [NAS6] | 3.18 ± 0.11 | 3.38 ± 0.098 | 2.85 ± 0.18 | 3.42 ± 0.1 |
| EVYKAEKDAVSVFGFRT [RPS24A] | 3.24 ± 0.15 | 3.12 ± 0.086 | 3.36 ± 0.07 | 3.31 ± 0.13 |
| EYIDDHRSGKIVVQLNG [RPS22A] | 3.21 ± 0.23 | 3.28 ± 0.17 | 2.77 ± 0.13 | 2.47 ± 0.23 |
| EYRPFSKKVLECLPAEG [DIS3] | 1.39 ± 0.13 | 1.68 ± 0.12 | 1.46 ± 0.1 | 1.56 ± 0.068 |
| EYSRDCFCEDHCDKCSV [RPB3] | 3.13 ± 0.19 | 3.51 ± 0.15 | 3.24 ± 0.18 | 2.98 ± 0.2 |
| FAADGDALVKRFKNSVK [PRE7] | 2.64 ± 0.28 |  |  |  |
| FAAILVLLVLPFTDRSV [COB] | 2.88 ± 0.081 | 1.3 ± 0.095 | 1.54 ± 0.15 | 1.13 ± 0.065 |
| FAALSDSYGQGSMTKTW [SSN2] | 3.17 ± 0.094 | 3.34 ± 0.088 | 3.23 ± 0.1 | 3.2 ± 0.063 |
| FAESPFFDKTSNNQVIK [MED6] | 3.49 ± 0.081 | 2.92 ± 0.096 | 2.71 ± 0.076 | 2.96 ± 0.069 |
| FAEYIQANIQLYSIRED [PRE1] | 2.39 ± 0.1 | 2.67 ± 0.091 | 2.49 ± 0.068 | 2.59 ± 0.091 |
| FAFLNAMFFGNYGSSLQ [AAR2] | 2.9 ± 0.064 | 2.5 ± 0.075 | 2.91 ± 0.072 | 2.56 ± 0.069 |

| Sequence | protein stability index (doa10∆) | protein stability index (pdr5∆) | protein stability index (san1∆) | protein stability index (ubr1∆) |
| --- | --- | --- | --- | --- |
| FAKEKLTKKEKKEANLF [RPL6A] | 3.02 ± 0.072 | 3.08 ± 0.08 | 3.19 ± 0.073 | 3.14 ± 0.05 |
| FAKQVDVQLERVADEDA [IRR1] | 3.15 ± 0.15 | 3.13 ± 0.29 | 2.76 ± 0.26 |  |
| FAQPVADIENSTSGDPS [SSN2] |  | 3.14 ± 0.23 | 2.9 ± 0.16 | 2.75 ± 0.24 |
| FCRDCNNMLYPREDKEN [RPB9] | 3.11 ± 0.083 | 3.11 ± 0.076 | 2.9 ± 0.064 | 3.08 ± 0.061 |
| FDDLEVEELPTFHDYDM [RRP42] | 2.6 ± 0.069 | 2.63 ± 0.064 | 2.79 ± 0.043 | 2.88 ± 0.043 |
| FDKLLNIPRRELKINLP [SRB4] | 2.57 ± 0.074 | 2.6 ± 0.053 | 2.74 ± 0.071 | 2.12 ± 0.061 |
| FDPSKDVLINELLDQVT [CDC53] | 2.74 ± 0.066 | 2.15 ± 0.047 | 2.24 ± 0.087 | 2.5 ± 0.054 |
| FDSLIKVQISKIPILAQ [RPN9] | 2.69 ± 0.081 | 1.8 ± 0.056 | 2.59 ± 0.094 | 1.96 ± 0.081 |
| FDTDWNPHQDLQAQDRA [SNF2] | 3.07 ± 0.068 | 3.16 ± 0.056 | 2.94 ± 0.037 | 3.35 ± 0.05 |
| FDVNTLCLMTWKEVMFD [CDC53] | 2.61 ± 0.096 | 2.59 ± 0.065 | 2.81 ± 0.11 | 2.85 ± 0.068 |
| FELVHHFFQIDGFNKTF [YML103C/NUP188] | 2.03 ± 0.075 | 2.24 ± 0.091 | 2.42 ± 0.074 | 2.36 ± 0.065 |
| FENVKLLAEYDNIYRNL [MED4] | 2.43 ± 0.052 | 2.64 ± 0.045 | 2.62 ± 0.071 | 2.31 ± 0.028 |
| FEPSISRSNFQGKHTKF [LRP1] | 3.2 ± 0.1 | 3.26 ± 0.15 | 2.97 ± 0.14 | 3.28 ± 0.094 |
| FEYCRIDGSTSHEERIE [ISW2] | 2.44 ± 0.047 | 2.23 ± 0.052 | 2.01 ± 0.061 | 2.49 ± 0.05 |
| FFDPKPFDQNLDSNNNN [SWI1] | 2.98 ± 0.085 | 2.83 ± 0.092 | 3.14 ± 0.048 | 2.88 ± 0.069 |
| FFSSDWRFLQILRNGID [POP1] | 2.29 ± 0.073 | 2.27 ± 0.088 | 2.5 ± 0.1 | 2.18 ± 0.072 |
| FGANQATNTFGSNQQSS [YGR119C/NUP57] | 2.91 ± 0.12 | 3.26 ± 0.076 | 3.2 ± 0.12 | 2.92 ± 0.073 |
| FGSRVMIAKEVKTSPDA [FAS1] | 3.37 ± 0.12 | 2.76 ± 0.26 | 2.81 ± 0.27 | 3.49 ± 0.2 |
| FHESGSQYSTMVNIGLH [RGR1] | 3.19 ± 0.12 | 3.19 ± 0.11 | 2.7 ± 0.18 | 3.27 ± 0.14 |
| FHFAIEQISNNSNQQQN [SIN4] | 2.93 ± 0.061 | 2.53 ± 0.044 | 2.74 ± 0.066 | 2.9 ± 0.049 |
| FHIDHTKPSDLTIKDIV [RPO21] | 2.71 ± 0.048 | 2.66 ± 0.06 | 2.56 ± 0.059 | 2.8 ± 0.035 |
| FHSAVENLVQGNGNVSE [YCG1] | 3.21 ± 0.092 | 2.97 ± 0.067 | 3.23 ± 0.069 | 3.02 ± 0.12 |
| FILIPLYKIFSYALSME [SNU114] | 1.65 ± 0.042 | 1.45 ± 0.037 | 1.46 ± 0.075 | 1.68 ± 0.031 |
| FIRDELDENKWYKFNDD [UBP6] | 1.86 ± 0.063 | 2.15 ± 0.043 | 1.94 ± 0.096 | 1.97 ± 0.062 |
